# Patent publication US20170008928A1, “NOVEL PEPTIDES AND PEPTIDE DERIVATIVES AND USES THEREOF” (Novo Nordisk A/S, priority 2015, published 2017)
# Starred links: 1 amine or outer side, 2 acyl side, 3 side chain; linkers in the order of their positions; H or OH if unused. Non-standard residues stand in square brackets, D forms with d. Residues, ends and D or L forms follow the SMILES beside them. No end group written: not given here. *: point of attachment. sY = N[C@@H](Cc1ccc(OS(=O)(=O)O)cc1)C(=O)O; C18 diacid = O=C(O)CCCCCCCCCCCCCCCCC(=O)*; C16 diacid = O=C(O)CCCCCCCCCCCCCCC(=O)*; γGlu = O=C(O)[C@H](CCC(=O)[*:2])N[*:1]; C14 diacid = O=C(O)CCCCCCCCCCCCC(=O)*; NMeF = CN[C@@H](Cc1ccccc1)C(=O)O; dNMeD = CN[C@H](CC(=O)O)C(=O)O; Nle = CCCC[C@H](N)C(=O)O; AEEA = NCCOCCOCC(=O)O
# T1: human cholecystokinin-2 receptor (CCK-2R) (Homo sapiens, UniProt P32239)
# T1 construct: host or cells: 1321-N1 cells (plasma membranes prepared by Evotec AG Hamburg)
# T1 sequence (P32239 1-447): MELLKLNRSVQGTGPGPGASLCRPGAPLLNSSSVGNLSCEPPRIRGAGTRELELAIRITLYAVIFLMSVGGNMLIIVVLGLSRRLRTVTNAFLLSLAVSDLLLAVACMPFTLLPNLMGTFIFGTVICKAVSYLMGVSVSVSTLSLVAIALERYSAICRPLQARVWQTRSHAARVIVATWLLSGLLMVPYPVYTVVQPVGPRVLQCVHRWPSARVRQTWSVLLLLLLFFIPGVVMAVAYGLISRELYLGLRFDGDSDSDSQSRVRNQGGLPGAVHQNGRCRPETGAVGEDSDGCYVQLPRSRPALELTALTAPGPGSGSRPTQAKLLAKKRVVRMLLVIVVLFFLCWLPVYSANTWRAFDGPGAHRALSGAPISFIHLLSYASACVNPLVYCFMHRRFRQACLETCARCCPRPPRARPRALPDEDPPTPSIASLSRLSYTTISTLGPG
# T2: human cholecystokinin-2 receptor (human, UniProt P32239 1-447)
# T2 sequence (looked up): T1 sequence (P32239 1-447)
# B1: Glu-sTyr-Leu-Gly-Trp-Nle-DMeAsp-Phe-amide (peptide)
# peptide: E[sY]LGW[Nle][dNMeD]F-NH2
# modifications: N-terminus assumed
# SMILES: CCCC[C@H](NC(=O)[C@H](Cc1c[nH]c2ccccc12)NC(=O)CNC(=O)[C@H](CC(C)C)NC(=O)[C@H](Cc1ccc(OS(=O)(=O)O)cc1)NC(=O)[C@@H](N)CCC(=O)O)C(=O)N(C)[C@H](CC(=O)O)C(=O)N[C@@H](Cc1ccccc1)C(N)=O
# notes: X = Nle or Nal
# Biological target: T1, human cholecystokinin-2 receptor (CCK-2R)
# Assay: In vitro potency on CCK-2R, whole cell functional assay (IP1 accumulation, IP-One HTRF)
# Type: cell-based
# Conditions: not given
row,Molecule,EC50 [nM]
1,"CCCC[C@H](NC(=O)[C@H](Cc1c[nH]c2ccccc12)NC(=O)CNC(=O)[C@H](CC(C)C)NC(=O)[C@H](Cc1ccc(OS(=O)(=O)O)cc1)NC(=O)[C@H](CC(=O)O)NC(=O)COCCOCCNC(=O)COCCOCCNC(=O)CC[C@H](NC(=O)CCCCCCCCCCCCCCCCC(=O)O)C(=O)O)C(=O)N(C)[C@H](CC(=O)O)C(=O)N(C)[C@@H](Cc1ccccc1)C(N)=O [Example 9, 2-[2-[2-[[2-[2-[2-[[(4S)-4-Carboxy-4-(17-carboxyheptadecanoylamino)butanoyl]amino]ethoxy]ethoxy]acetyl]amino]ethoxy]ethoxy]acetyl-Asp-sTyr-Leu-Gly-Trp-Nle-DMeAsp-MePhe-amide]",170

# Same assay, conditions: 1321-N1 cells stably expressing CCK-2R; IP1 accumulation; highest dose tested 1×10^6 pM; read-out: EC50 (CCK-2R)
row,EC50 [nM],Molecule
1,> 1000,"CCCC[C@H](NC(=O)[C@H](Cc1ccc(OS(=O)(=O)O)cc1)NC(=O)[C@H](CC(=O)O)NC(=O)COCCOCCNC(=O)COCCOCCNC(=O)CC[C@H](NC(=O)CCCCCCCCCCCCCCCCC(=O)O)C(=O)O)C(=O)NCC(=O)N[C@@H](Cc1c[nH]c2ccccc12)C(=O)N[C@@H](CCCC)C(=O)N(C)[C@H](CC(=O)O)C(=O)N[C@@H](Cc1c[nH]c2ccccc12)C(N)=O [Example 1, 2-[2-[2-[[2-[2-[2-[[(4S)-4-Carboxy-4-(17-carboxyheptadecanoylamino)butanoyl]amino]ethoxy]ethoxy]acetyl]amino]ethoxy]ethoxy]acetyl-Asp-sTyr-Nle-Gly-Trp-Nle-DMeAsp-Trp-amide] ({C18 diacid-γGlu-AEEA-AEEA}-D[sY][Nle]GW[Nle][dNMeD]W-NH2)"
2,150,"CCCC[C@H](NC(=O)[C@H](Cc1c[nH]c2ccccc12)NC(=O)CNC(=O)[C@H](CC(C)C)NC(=O)[C@H](Cc1ccc(OS(=O)(=O)O)cc1)NC(=O)[C@H](CCC(=O)O)NC(=O)COCCOCCNC(=O)COCCOCCNC(=O)CC[C@H](NC(=O)CCCCCCCCCCCCC(=O)O)C(=O)O)C(=O)N(C)[C@H](CC(=O)O)C(=O)N(C)[C@@H](Cc1ccccc1)C(N)=O [Example 36, 2-[2-[2-[[2-[2-[2-[[(4S)-4-Carboxy-4-(13-carboxytridecanoylamino)butanoyl]amino]ethoxy]ethoxy]acetyl]amino]ethoxy]ethoxy]acetyl-Glu-sTyr-Leu-Gly-Trp-Nle-DMeAsp-MePhe-amide] ({C14 diacid-γGlu-AEEA-AEEA}-E[sY]LGW[Nle][dNMeD][NMeF]-NH2)"
3,110,"CCCC[C@H](NC(=O)[C@H](Cc1c[nH]c2ccccc12)NC(=O)CNC(=O)[C@H](CC(C)C)NC(=O)[C@H](Cc1ccc(OS(=O)(=O)O)cc1)NC(=O)[C@H](CCC(=O)O)NC(=O)COCCOCCNC(=O)COCCOCCNC(=O)CC[C@H](NC(=O)CCCCCCCCCCCCCCC(=O)O)C(=O)O)C(=O)N(C)[C@H](CC(=O)O)C(=O)N(C)[C@@H](Cc1ccccc1)C(N)=O [Example 39, 2-[2-[2-[[2-[2-[2-[[(4S)-4-Carboxy-4-(15-carboxypentadecanoylamino)butanoyl]amino]ethoxy]ethoxy]acetyl]amino]ethoxy]ethoxy]acetyl-Glu-sTyr-Leu-Gly-Trp-Nle-DMeAsp-MePhe-amide] ({C16 diacid-γGlu-AEEA-AEEA}-E[sY]LGW[Nle][dNMeD][NMeF]-NH2)"
4,> 1000,"CCCC[C@H](NC(=O)[C@H](Cc1c[nH]c2ccccc12)NC(=O)CNC(=O)[C@H](Cc1c[nH]cn1)NC(=O)[C@H](Cc1ccc(OS(=O)(=O)O)cc1)NC(=O)[C@H](CC(=O)O)NC(=O)COCCOCCNC(=O)COCCOCCNC(=O)CC[C@H](NC(=O)CCCCCCCCCCCCCCCCC(=O)O)C(=O)O)C(=O)N(C)[C@H](CC(=O)O)C(=O)N(C)[C@@H](Cc1ccccc1)C(N)=O [Example 48, 2-[2-[2-[[2-[2-[2-[[(4S)-4-Carboxy-4-(17-carboxyheptadecanoylamino)butanoyl]amino]ethoxy]ethoxy]acetyl]amino]ethoxy]ethoxy]acetyl-Asp-sTyr-His-Gly-Trp-Nle-DMeAsp-MePhe-amide] ({C18 diacid-γGlu-AEEA-AEEA}-D[sY]HGW[Nle][dNMeD][NMeF]-NH2)"
5,46,"CCCC[C@H](NC(=O)[C@H](Cc1c[nH]c2ccccc12)NC(=O)CNC(=O)[C@H](CC(C)C)NC(=O)[C@H](Cc1ccc(OS(=O)(=O)O)cc1)NC(=O)[C@@H](CCC(=O)O)NC(=O)COCCOCCNC(=O)COCCOCCNC(=O)CC[C@H](NC(=O)CCCCCCCCCCCCCCCCC(=O)O)C(=O)O)C(=O)N(C)[C@H](CC(=O)O)C(=O)N(C)[C@@H](Cc1ccccc1)C(N)=O [Example 49, 2-[2-[2-[[2-[2-[2-[[(4S)-4-Carboxy-4-(17-carboxyheptadecanoylamino)butanoyl]amino]ethoxy]ethoxy]acetyl]amino]ethoxy]ethoxy]acetyl-DGlu-sTyr-Leu-Gly-Trp-Nle-DMeAsp-MePhe-amide] ({C18 diacid-γGlu-AEEA-AEEA}-[dE][sY]LGW[Nle][dNMeD][NMeF]-NH2)"
6,380,"CCCC[C@H](NC(=O)[C@H](Cc1c[nH]c2ccccc12)NC(=O)CNC(=O)[C@H](CC(C)C)NC(=O)[C@H](Cc1ccc(OS(=O)(=O)O)cc1)NC(=O)[C@@H](N)CC(=O)O)C(=O)N(C)[C@H](CC(=O)O)C(=O)N(C)[C@@H](Cc1ccccc1)C(N)=O [Example 60, Asp-sTyr-Leu-Gly-Trp-Nle-DMeAsp-MePhe-amide]"

# Biological target: T2, human cholecystokinin-2 receptor
# Assay: cell-based or functional assay
# Conditions: not given
row,EC50 (CCK-2R) [nM],Molecule
1,> 1000,2-[2-[2-[[2-[2-[2-[[(4S)-4-Carboxy-4-(13-carboxytridecanoylamino)butanoyl]amino]ethoxy]ethoxy]acetyl]amino]ethoxy]ethoxy]acetyl-Asp-Phe(4-sulfomethyl)-Leu-Gly-Trp-Nle-DMeAsp-MePhe-amide (peptide)
2,> 1000,2-[2-[2-[[2-[2-[2-[[(4S)-4-Carboxy-4-(15-carboxypentadecanoylamino)butanoyl]amino]ethoxy]ethoxy]acetyl]amino]ethoxy]ethoxy]acetyl-Asp-Phe(4-sulfomethyl)-Leu-Gly-Trp-Nle-DMeAsp-MePhe-amide (peptide)
3,> 1000,2-[2-[2-[[2-[2-[2-[[(4S)-4-Carboxy-4-(17-carboxyheptadecanoylamino)butanoyl]amino]ethoxy]ethoxy]acetyl]amino]ethoxy]ethoxy]acetyl-Asp-Phe(4-sulfomethyl)-Nle-Gly-Trp-Nle-DMeAsp-MePhe-amide (peptide)
4,> 1000,2-[2-[2-[[2-[2-[2-[[(4S)-4-Carboxy-4-(17-carboxyheptadecanoylamino)butanoyl]amino]ethoxy]ethoxy]acetyl]amino]ethoxy]ethoxy]acetyl-DAsp-Phe(4-sulfomethyl)-Nle-Gly-Trp-Nle-DMeAsp-MePhe-amide (peptide)
5,> 1000,2-[2-[2-[[2-[2-[2-[[(4S)-4-Carboxy-4-(17-carboxyheptadecanoylamino)butanoyl]amino]ethoxy]ethoxy]acetyl]amino]ethoxy]ethoxy]acetyl-DbAsp-Phe(4-sulfomethyl)-Nle-Gly-Trp-Nle-DMeAsp-MePhe-amide (peptide)
6,> 1000,2-[2-[2-[[2-[2-[2-[[(4S)-4-Carboxy-4-(17-carboxyheptadecanoylamino)butanoyl]amino]ethoxy]ethoxy]acetyl]amino]ethoxy]ethoxy]acetyl-bAsp-Phe(4-sulfomethyl)-Nle-Gly-Trp-Nle-DMeAsp-MePhe-amide (peptide)
7,> 1000,2-[2-[2-[[2-[2-[2-[[(4S)-4-Carboxy-4-(19-carboxynonadecanoylamino)butanoyl]amino]ethoxy]ethoxy]acetyl]amino]ethoxy]ethoxy]acetyl-Asp-Phe(4-sulfomethyl)-Leu-Gly-Trp-Nle-DMeAsp-MePhe-amide (peptide)
8,> 1000,Asp-Phe(4-sulfomethyl)-Leu-Gly-Trp-Nle-DMeAsp-MePhe-amide (peptide)
9,> 1000,Asp-sTyr-His-Gly-Trp-Nle-DMeAsp-MePhe-amide (peptide)
10,> 1000,Asp-sTyr-Ile-Gly-Trp-Nle-DMeAsp-MePhe-amide (peptide)
11,> 1000,Asp-sTyr-Leu-Gly-Trp-Nle-DMeAsp-Phe-amide (peptide)
12,> 1000,Asp-sTyr-Nle-Gly-Trp-Nle-DMeAsp-MePhe-amide (peptide)
13,> 1000,Asp-sTyr-Pro-Gly-Trp-Nle-DMeAsp-MePhe-amide (peptide)
14,> 1000,DGlu-sTyr-Leu-Gly-Trp-Nle-DMeAsp-MePhe-amide (peptide)
15,920,Glu-sTyr-Leu-Gly-Trp-Nle-DMeAsp-MePhe-amide (peptide)
16,> 1000,{C18 diacid-γGlu-AEEA-AEEA}-E[sY]LGWQ[dNMeD]F-NH2
17,> 1000,E[sY]LGWQ[dNMeD]F-NH2 [Glu-sTyr-Leu-Gly-Trp-Gln-DMeAsp-Phe-amide]
18,> 1000,B1
